Results reported in patent US20150361450.
pKd: −log10 of the molar value. Like-named read-outs stand apart in the source and are kept apart here.

Legend:
[1] = system: preKARS2 (precursor of human mitochondrial lysyl-tRNA synthetase) (Homo sapiens), Q15046-2; details: CITED targeting sequence said to completely abolish RNA binding; cited from earlier work
[2] = system: KARS2 (mature mitochondrial lysyl-tRNA synthetase, lacking predicted mitochondrial targeting presequence) (Homo sapiens); details: CITED apparent Kd, printed as 250+/240; cited from earlier work
[3] = system: preKARS2 (precursor of human mitochondrial lysyl-tRNA synthetase) (Homo sapiens), Q15046-2; experiment: EMSA; details: apparent Kd, error printed as 300+/250 (likely +/-50); 20 mM Tris-HCl pH 7.5, 150 mM NaCl, 10 mM MgCl2, 30 C
[4] = system: preMSK1p (precursor of yeast mitochondrial lysyl-tRNA synthetase) (Saccharomyces cerevisiae); details: CITED previously evaluated apparent Kd, printed as 280+/260; cited from earlier work

preKARS2 (precursor of human mitochondrial lysyl-tRNA synthetase) (Homo sapiens), Q15046-2, sequence (Q15046 other isoform, or with tags, fused parts or gaps): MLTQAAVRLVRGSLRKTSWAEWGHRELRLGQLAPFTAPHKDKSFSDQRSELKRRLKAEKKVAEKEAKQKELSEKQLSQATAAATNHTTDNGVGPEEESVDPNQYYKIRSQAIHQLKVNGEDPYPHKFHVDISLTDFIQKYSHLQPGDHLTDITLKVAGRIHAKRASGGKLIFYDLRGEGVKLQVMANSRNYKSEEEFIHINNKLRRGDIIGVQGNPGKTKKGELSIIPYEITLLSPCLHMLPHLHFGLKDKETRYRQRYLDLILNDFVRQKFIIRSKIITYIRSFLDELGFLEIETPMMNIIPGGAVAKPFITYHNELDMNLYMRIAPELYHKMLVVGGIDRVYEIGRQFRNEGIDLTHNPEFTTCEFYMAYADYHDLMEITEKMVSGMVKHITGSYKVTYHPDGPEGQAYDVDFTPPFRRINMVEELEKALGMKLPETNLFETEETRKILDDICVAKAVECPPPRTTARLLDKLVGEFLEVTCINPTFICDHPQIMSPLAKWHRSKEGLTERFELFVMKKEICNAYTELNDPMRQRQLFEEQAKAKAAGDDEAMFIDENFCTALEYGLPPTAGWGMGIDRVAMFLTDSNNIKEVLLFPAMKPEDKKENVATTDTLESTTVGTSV

Substance	pKd [1]	pKd [2]	pKd [3]	pKd [4]
human cytosolic tRNALys3	4.00	6.60	–	–
tRK1 (yeast tRNALys CUU, T7 transcript)	–	–	6.52	6.55
